Measured values taken from patent publication US20240118272A1.

What was measured:
[1] = target: CD9(FL)-ALP conjugate (human; bovine); experiment: HI-1000 capture immunoassay; calibrator C4, 15 ng/mL; run 3
[2] = target: CD9(FL)-ALP conjugate (human; bovine); experiment: HI-1000 capture immunoassay; calibrator C2, 3.7 ng/mL; run 2
[3] = target: CD9(FL)-ALP conjugate (human; bovine); experiment: HI-1000 capture immunoassay; calibrator C3, 7.4 ng/mL; run 3
[4] = target: CD9(FL)-ALP conjugate (human; bovine); experiment: HI-1000 capture immunoassay; calibrator C1, 1.83 mU/L; run 1
[5] = target: CD9(FL)-ALP conjugate (human; bovine); experiment: HI-1000 capture immunoassay; calibrator C1, 1.83 mU/L; run 3
[6] = target: CD9(FL)-ALP conjugate (human; bovine); experiment: HI-1000 capture immunoassay; calibrator C2, 5.48 mU/L; run 2
[7] = target: CD9(FL)-ALP conjugate (human; bovine); experiment: HI-1000 capture immunoassay; calibrator C2, 5.48 mU/L; run 3
[8] = target: CD9(FL)-ALP conjugate (human; bovine); experiment: HI-1000 capture immunoassay; calibrator C3, 10.96 mU/L; run 1
[9] = target: CD9(FL)-ALP conjugate (human; bovine); experiment: HI-1000 capture immunoassay; calibrator C3, 10.96 mU/L; run 2
[10] = target: CD9(FL)-ALP conjugate (human; bovine); experiment: HI-1000 capture immunoassay; calibrator C3, 10.96 mU/L; run 3
[11] = target: CD9(FL)-ALP conjugate (human; bovine); experiment: HI-1000 capture immunoassay; calibrator C4, 21.93 mU/L; run 3
[12] = target: CD9(FL)-ALP conjugate (human; bovine); experiment: HI-1000 capture immunoassay; calibrator C5, 43.86 mU/L; run 1
[13] = target: CD9(FL)-ALP conjugate (human; bovine); experiment: HI-1000 capture immunoassay; calibrator C4, 15 ng/mL; mean of 3
[14] = target: CD9(FL)-ALP conjugate (human; bovine); experiment: HI-1000 capture immunoassay; calibrator C2, 3.7 ng/mL; mean of 3
[15] = target: CD9(FL)-ALP conjugate (human; bovine); experiment: HI-1000 capture immunoassay; calibrator C2, 5.48 mU/L; mean of 3
[16] = target: CD9(FL)-ALP conjugate (human; bovine); experiment: HI-1000 capture immunoassay; calibrator C4, 21.93 mU/L; mean of 3
[17] = target: CD9(ECD)-ALP conjugate (human; bovine); experiment: HI-1000 capture immunoassay; primary calibrator C1, 1.52 ng/mL; run 3
[18] = target: CD9(ECD)-ALP conjugate (human; bovine); experiment: HI-1000 capture immunoassay; primary calibrator C2, 4.89 ng/mL; run 1
[19] = target: CD9(ECD)-ALP conjugate (human; bovine); experiment: HI-1000 capture immunoassay; secondary calibrator C1, 1.02 U/L; run 1
[20] = target: CD9(ECD)-ALP conjugate (human; bovine); experiment: HI-1000 capture immunoassay; secondary calibrator C1, 1.02 U/L; run 3
[21] = target: CD9(ECD)-ALP conjugate (human; bovine); experiment: HI-1000 capture immunoassay; secondary calibrator C3, 14.32 U/L; run 1
[22] = target: CD9(ECD)-ALP conjugate (human; bovine); experiment: HI-1000 capture immunoassay; primary calibrator C5, 159.87 ng/mL; run 2
[23] = target: CD9(ECD)-ALP conjugate (human; bovine); experiment: HI-1000 capture immunoassay; primary calibrator C5, 159.87 ng/mL; run 3
[24] = target: CD9(ECD)-ALP conjugate (human; bovine); experiment: HI-1000 capture immunoassay; secondary calibrator C4, 129.62 U/L; run 1
[25] = target: CD9(ECD)-ALP conjugate (human; bovine); experiment: HI-1000 capture immunoassay; secondary calibrator C4, 129.62 U/L; run 2
[26] = target: CD9(ECD)-ALP conjugate (human; bovine); experiment: HI-1000 capture immunoassay; secondary calibrator C4, 129.62 U/L; run 3
[27] = target: CD9(ECD)-ALP conjugate (human; bovine); experiment: HI-1000 capture immunoassay; secondary calibrator C3; mean of 3 aliquots
[28] = target: CD9(ECD)-ALP conjugate (human; bovine); experiment: HI-1000 capture immunoassay; secondary calibrator C5; mean of 3 aliquots
[29] = target: CD9(ECD)-ALP conjugate (human; bovine); experiment: HI-1000 capture immunoassay; thawed aliquot 1 of secondary calibrator C1
[30] = target: CD9(ECD)-ALP conjugate (human; bovine); experiment: HI-1000 capture immunoassay; thawed aliquot 1 of secondary calibrator C4
[31] = target: CD9(ECD)-ALP conjugate (human; bovine); experiment: HI-1000 capture immunoassay; thawed aliquot 1 of secondary calibrator C5
[32] = target: CD9(ECD)-ALP conjugate (human; bovine); experiment: HI-1000 capture immunoassay; thawed aliquot 2 of secondary calibrator C2
[33] = target: CD9(ECD)-ALP conjugate (human; bovine); experiment: HI-1000 capture immunoassay; thawed aliquot 2 of secondary calibrator C3
[34] = target: CD9(ECD)-ALP conjugate (human; bovine); experiment: HI-1000 capture immunoassay; thawed aliquot 2 of secondary calibrator C5
[35] = target: CD9(ECD)-ALP conjugate (human; bovine); experiment: HI-1000 capture immunoassay; thawed aliquot 3 of secondary calibrator C2
[36] = target: CD9(ECD)-ALP conjugate (human; bovine); experiment: HI-1000 capture immunoassay; thawed aliquot 3 of secondary calibrator C3
[37] = target: CD9(ECD)-ALP conjugate (human; bovine); experiment: HI-1000 capture immunoassay; thawed aliquot 3 of secondary calibrator C5
[38] = target: CD9(ECD)-ALP conjugate (human; bovine); experiment: HI-1000 capture immunoassay; primary calibrator C2, 4.89 ng/mL; mean of 3
[39] = target: CD9(ECD)-ALP conjugate (human; bovine); experiment: HI-1000 capture immunoassay; secondary calibrator C1, 1.02 U/L; mean of 3
[40] = target: CD9(ECD)-ALP conjugate (human; bovine); experiment: HI-1000 capture immunoassay; secondary calibrator C5, 387.01 U/L; mean of 3

CD9(ECD)-ALP conjugate (human; bovine), sequence (chain, as listed by the source, chain 1 of 2): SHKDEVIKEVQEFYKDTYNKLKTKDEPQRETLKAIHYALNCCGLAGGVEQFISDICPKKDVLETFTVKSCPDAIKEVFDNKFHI
CD9(ECD)-ALP conjugate (human; bovine), sequence (P19111 20-506, chain 2 of 2): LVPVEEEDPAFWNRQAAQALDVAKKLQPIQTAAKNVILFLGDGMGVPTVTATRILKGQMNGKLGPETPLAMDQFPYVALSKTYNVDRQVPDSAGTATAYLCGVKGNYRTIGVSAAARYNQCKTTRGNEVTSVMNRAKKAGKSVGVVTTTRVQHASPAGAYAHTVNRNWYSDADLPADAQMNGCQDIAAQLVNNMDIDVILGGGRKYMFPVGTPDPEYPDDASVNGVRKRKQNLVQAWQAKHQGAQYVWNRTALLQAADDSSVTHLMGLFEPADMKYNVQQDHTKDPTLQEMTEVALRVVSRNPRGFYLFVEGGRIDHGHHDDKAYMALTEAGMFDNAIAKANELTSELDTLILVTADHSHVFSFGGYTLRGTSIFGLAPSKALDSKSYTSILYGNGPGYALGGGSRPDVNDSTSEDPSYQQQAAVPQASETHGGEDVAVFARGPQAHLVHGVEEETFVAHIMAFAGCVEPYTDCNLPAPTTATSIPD
CD9(FL)-ALP conjugate (human; bovine), sequence (chain, as listed by the source, chain 1 of 2): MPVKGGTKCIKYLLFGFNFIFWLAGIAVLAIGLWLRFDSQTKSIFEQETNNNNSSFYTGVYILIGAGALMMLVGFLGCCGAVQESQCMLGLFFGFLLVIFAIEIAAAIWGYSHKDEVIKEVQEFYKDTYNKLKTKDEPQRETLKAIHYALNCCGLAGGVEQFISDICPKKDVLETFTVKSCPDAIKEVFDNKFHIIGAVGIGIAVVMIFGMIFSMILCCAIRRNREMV
CD9(FL)-ALP conjugate (human; bovine), sequence (P19111 20-506, chain 2 of 2): as the sequence (P19111 20-506, chain 2 of 2) above

Count value [1]: 13900 count
Count value [2]: 8680 count
Count value [3]: 7010 count
Count value [4]: 1580 count
Count value [5]: 1460 count
Count value [6]: 3520 count
Count value [7]: 3780 count
Count value [8]: 6330 count
Count value [9]: 7090 count
Count value [10]: 6810 count
Count value [11]: 13300 count
Count value [12]: 25800 count
Count value (av) [13]: 13500 count
Count value (av) [14]: 4280 count
Count value (av) [15]: 3640 count
Count value (av) [16]: 13300 count
Count value [17]: 1120 count
Count value [18]: 2610 count
Count value [19]: 975 count
Count value [20]: 912 count
Count value [21]: 7980 count
Count value [22]: 67600 count
Count value [23]: 71600 count
Count value [24]: 71000 count
Count value [25]: 69400 count
Count value [26]: 69500 count
Count value (av) [27]: 3900 count
Count value (av) [28]: 36300 count
Count value [29]: 818 count
Count value [30]: 11400 count
Count value [31]: 36500 count
Count value [32]: 1580 count
Count value [33]: 4080 count
Count value [34]: 36800 count
Count value [35]: 1520 count
Count value [36]: 3800 count
Count value [37]: 35700 count
Count value (av) [38]: 2560 count
Count value (av) [39]: 941 count
Count value (av) [40]: 216000 count
Substance: anti-CD9 antibody (Clone: H19a)
